Source: IntAct's records for PubMed 17932490

B1: Serine/threonine-protein kinase 4 (Homo sapiens), Q13043 (parent)
chain: METVQLRNPPRRQLKKLDEDSLTKQPEEVFDVLEKLGEGSYGSVYKAIHKETGQIVAIKQVPVESDLQEIIKEISIMQQCDSPHVVKYYGSYFKNTDLWIVMEYCGAGSVSDIIRLRNKTLTEDEIATILQSTLKGLEYLHFMRKIHRDIKAGNILLNTEGHAKLADFGVAGQLTDTMAKRNTVIGTPFWMAPEVIQEIGYNCVADIWSLGITAIEMAEGKPPYADIHPMRAIFMIPTNPPPTFRKPELWSDNFTDFVKQCLVKSPEQRATATQLLQHPFVRSAKGVSILRDLINEAMDVKLKRQESQQREVDQDDEENSEEDEMDSGTMVRAVGDEMGTVRVASTMTDGANTMIEHDDTLPSQLGTMVINAEDEEEEGTMKRRDETMQPAKPSFLEYFEQKEKENQINSFGKSVPGPLKNSSDWKIPQDGDYEFLKSWTVEDLQKRLLALDPMMEQEIEEIRQKYQSKRQPILDAIEAKKRRQQNF

Variants of: B1
Settings: with akt1_human AKT1, P31749
Sequence of akt1_human AKT1, P31749 (P31749 whole entry): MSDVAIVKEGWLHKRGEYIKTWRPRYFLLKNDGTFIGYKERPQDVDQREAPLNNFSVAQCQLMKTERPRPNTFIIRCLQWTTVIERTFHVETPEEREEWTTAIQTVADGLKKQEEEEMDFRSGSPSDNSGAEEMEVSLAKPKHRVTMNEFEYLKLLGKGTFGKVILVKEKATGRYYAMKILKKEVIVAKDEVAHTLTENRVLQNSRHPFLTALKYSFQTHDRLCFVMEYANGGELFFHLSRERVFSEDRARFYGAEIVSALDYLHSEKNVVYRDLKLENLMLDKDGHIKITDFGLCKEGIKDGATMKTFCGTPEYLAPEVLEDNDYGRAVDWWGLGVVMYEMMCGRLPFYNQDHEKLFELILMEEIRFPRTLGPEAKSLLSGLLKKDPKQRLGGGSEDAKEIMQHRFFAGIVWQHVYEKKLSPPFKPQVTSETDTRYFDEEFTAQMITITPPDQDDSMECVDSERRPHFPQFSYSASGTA
In the case of METVQLRNPPRRQLKKLDEDSLTKQPEEVFDVLEKLGEGSYGSVYKAIHKETGQIVAIRQVPVESDLQEIIKEISIMQQCDSPHVVKYYGSYFKNTDLWIVMEYCGAGSVSDIIRLRNKTLTEDEIATILQSTLKGLEYLHFMRKIHRDIKAGNILLNTEGHAKLADFGVAGQLTDTMAKRNTVIGTPFWMAPEVIQEIGYNCVADIWSLGITAIEMAEGKPPYADIHPMRAIFMIPTNPPPTFRKPELWSDNFTDFVKQCLVKSPEQRATATQLLQHPFVRSAKGVSILRDLINEAMDVKLKRQESQQREVDQDDEENSEEDEMDSGTMVRAVGDEMGTVRVASTMTDGANTMIEHDDTLPSQLGTMVINAEDEEEEGTMKRRDETMQPAKPSFLEYFEQKEKENQINSFGKSVPGPLKNSSDWKIPQDGDYEFLKSWTVEDLQKRLLALDPMMEQEIEEIRQKYQSKRQPILDAIEAKKRRQQNF [K59R], the “effect of a mutation on the interaction” value is reported as “disrupting interaction”.
